Source: patent US20220048967A1 (published 2022)
Numbered stars: 1 amine (or outer) side, 2 acyl side, 3 side chain; on linkers, the order of the positions; unused ones are H or OH. Square brackets hold non-standard residues; d marks the D form. Side chains are listed from the residue outwards. Ends that are not written are not given here. * marks the point of attachment. C20 diacid = O=C(O)CCCCCCCCCCCCCCCCCCC(=O)*; C18 diacid = O=C(O)CCCCCCCCCCCCCCCCC(=O)*; γGlu = O=C(O)[C@H](CCC(=O)[*:2])N[*:1]; AEEA = NCCOCCOCC(=O)O; Aib = CC(C)(N)C(=O)O

Key:
[1] = target: Pro-Link-tagged Human GLP-1R (human, UniProt P43220 24-463); assay: cell-based or functional assay
[2] = target: human GLP-1 receptor (human, UniProt P43220 24-463); assay: cell-based or functional assay

| Binder | hGLP1R B-Arrestin2 % Top [1] [%] | hGLP1R B-Arrestin2 Rel EC50 [1] [nM] | hGLP1R GTPgS % Top [2] [%] | hGLP1R GTPgS Rel EC50 [2] [nM] |
| --- | --- | --- | --- | --- |
| Y[Aib]EGTFTSDYSILLDKK([AEEA-AEEA-γGlu-C18 diacid])AQ[Aib]AFIEYLIEGGPSSG-NH2 (N-terminus assumed; SMILES CC[C@H](C)[C@H](NC(=O)[C@H](CC(C)C)NC(=O)[C@H](Cc1ccc(O)cc1)NC(=O)[C@H](CCC(=O)O)NC(=O)[C@@H](NC(=O)[C@H](Cc1ccccc1)NC(=O)[C@H](C)NC(=O)C(C)(C)NC(=O)[C@H](CCC(N)=O)NC(=O)[C@H](C)NC(=O)[C@H](CCCCNC(=O)COCCOCCNC(=O)COCCOCCNC(=O)CC[C@H](NC(=O)CCCCCCCCCCCCCCCCC(=O)O)C(=O)O)NC(=O)[C@H](CCCCN)NC(=O)[C@H](CC(=O)O)NC(=O)[C@H](CC(C)C)NC(=O)[C@H](CC(C)C)NC(=O)[C@@H](NC(=O)[C@H](CO)NC(=O)[C@H](Cc1ccc(O)cc1)NC(=O)[C@H](CC(=O)O)NC(=O)[C@H](CO)NC(=O)[C@@H](NC(=O)[C@H](Cc1ccccc1)NC(=O)[C@@H](NC(=O)CNC(=O)[C@H](CCC(=O)O)NC(=O)C(C)(C)NC(=O)[C@@H](N)Cc1ccc(O)cc1)[C@@H](C)O)[C@@H](C)O)[C@@H](C)CC)[C@@H](C)CC)C(=O)N[C@@H](CCC(=O)O)C(=O)NCC(=O)NCC(=O)N1CCC[C@H]1C(=O)N[C@@H](CO)C(=O)N[C@@H](CO)C(=O)NCC(N)=O) [Example 266] | 17.1 | 16 | 63.4 | 0.865 |
| Y[Aib]EGTFTSDYSILLDKK([AEEA-AEEA-γGlu-C18 diacid])AQ[Aib]AFIEYLIEGG-NH2 (N-terminus assumed; SMILES CC[C@H](C)[C@H](NC(=O)[C@H](CC(C)C)NC(=O)[C@H](Cc1ccc(O)cc1)NC(=O)[C@H](CCC(=O)O)NC(=O)[C@@H](NC(=O)[C@H](Cc1ccccc1)NC(=O)[C@H](C)NC(=O)C(C)(C)NC(=O)[C@H](CCC(N)=O)NC(=O)[C@H](C)NC(=O)[C@H](CCCCNC(=O)COCCOCCNC(=O)COCCOCCNC(=O)CC[C@H](NC(=O)CCCCCCCCCCCCCCCCC(=O)O)C(=O)O)NC(=O)[C@H](CCCCN)NC(=O)[C@H](CC(=O)O)NC(=O)[C@H](CC(C)C)NC(=O)[C@H](CC(C)C)NC(=O)[C@@H](NC(=O)[C@H](CO)NC(=O)[C@H](Cc1ccc(O)cc1)NC(=O)[C@H](CC(=O)O)NC(=O)[C@H](CO)NC(=O)[C@@H](NC(=O)[C@H](Cc1ccccc1)NC(=O)[C@@H](NC(=O)CNC(=O)[C@H](CCC(=O)O)NC(=O)C(C)(C)NC(=O)[C@@H](N)Cc1ccc(O)cc1)[C@@H](C)O)[C@@H](C)O)[C@@H](C)CC)[C@@H](C)CC)C(=O)N[C@@H](CCC(=O)O)C(=O)NCC(=O)NCC(N)=O) [Example 267] | 16.5 | 9.01 | 62.3 | 0.867 |
| Y[Aib]EGTFTSDYSILLDKK([AEEA-AEEA-γGlu-C18 diacid])AQ[Aib]AFIEYLIAGGPSSG-NH2 (N-terminus assumed; SMILES CC[C@H](C)[C@H](NC(=O)[C@H](CC(C)C)NC(=O)[C@H](Cc1ccc(O)cc1)NC(=O)[C@H](CCC(=O)O)NC(=O)[C@@H](NC(=O)[C@H](Cc1ccccc1)NC(=O)[C@H](C)NC(=O)C(C)(C)NC(=O)[C@H](CCC(N)=O)NC(=O)[C@H](C)NC(=O)[C@H](CCCCNC(=O)COCCOCCNC(=O)COCCOCCNC(=O)CC[C@H](NC(=O)CCCCCCCCCCCCCCCCC(=O)O)C(=O)O)NC(=O)[C@H](CCCCN)NC(=O)[C@H](CC(=O)O)NC(=O)[C@H](CC(C)C)NC(=O)[C@H](CC(C)C)NC(=O)[C@@H](NC(=O)[C@H](CO)NC(=O)[C@H](Cc1ccc(O)cc1)NC(=O)[C@H](CC(=O)O)NC(=O)[C@H](CO)NC(=O)[C@@H](NC(=O)[C@H](Cc1ccccc1)NC(=O)[C@@H](NC(=O)CNC(=O)[C@H](CCC(=O)O)NC(=O)C(C)(C)NC(=O)[C@@H](N)Cc1ccc(O)cc1)[C@@H](C)O)[C@@H](C)O)[C@@H](C)CC)[C@@H](C)CC)C(=O)N[C@@H](C)C(=O)NCC(=O)NCC(=O)N1CCC[C@H]1C(=O)N[C@@H](CO)C(=O)N[C@@H](CO)C(=O)NCC(N)=O) [Example 272] |  | > 12000 | 66.5 | 0.651 |
| YXEGTFTSDYSIXLDKKAQXAFIEYLIEGGPSSG (Aib2, αMeL13, K17 conjugated to (2-[2-(2-Amino-ethoxy)-ethoxy]-acetyl)2-(γ-Glu)-CO-(CH2)16-CO2H, Aib20, C-terminal amide (NH2)) [Example 300] | 38.4 | 5.4 | 85.6 | 0.405 |
| YXEGTXTSDYSILLDKKAQXAFIEYLIEGGPSSG (Aib2, αMeF6, K17 conjugated to (2-[2-(2-Amino-ethoxy)-ethoxy]-acetyl)2-(γ-Glu)-CO-(CH2)16-CO2H, Aib20, C-terminal amide (NH2)) [Example 301] | 93.7 | 2.67 | 91.4 | 0.435 |
| YXEGTXTSDYSILLDKKAQXAFIEYLIEGGPSSG (Aib2, αMeF(2F)6, K17 conjugated to (2-[2-(2-Amino-ethoxy)-ethoxy]-acetyl)2-(γ-Glu)-CO-(CH2)16-CO2H, Aib20, C-terminal amide (NH2)) [Example 302] | 98.4 | 2.19 | 98.6 | 0.268 |
| YXEGTFTSDYSIXLDEKAQXAFIEYLIEGGPSSG (Aib2, αMeL13, K17 conjugated to (2-[2-(2-Amino-ethoxy)-ethoxy]-acetyl)2-(γ-Glu)-CO-(CH2)16-CO2H, Aib20, C-terminal amide (NH2)) [Example 303] | 47.7 | 17.9 | 74.3 | 0.547 |
| YXEGTFTSDYSILLDKKAQXAFIEYLIEGGPSSGAPPPS (Aib2, K17 conjugated to (2-[2-(2-Amino-ethoxy)-ethoxy]-acetyl)2-(γ-Glu)-CO-(CH2)16-CO2H, Aib20, C-terminal amide (NH2)) [Example 315] | 25.4 | 19.9 | 44.2 | 0.601 |
| Y[Aib]EGTFTSDYSILLDKK([AEEA-AEEA-γGlu-C18 diacid])AQ[Aib]AFIEYLIAGGPSSGAPPPS-NH2 (N-terminus assumed; SMILES CC[C@H](C)[C@H](NC(=O)[C@H](CC(C)C)NC(=O)[C@H](Cc1ccc(O)cc1)NC(=O)[C@H](CCC(=O)O)NC(=O)[C@@H](NC(=O)[C@H](Cc1ccccc1)NC(=O)[C@H](C)NC(=O)C(C)(C)NC(=O)[C@H](CCC(N)=O)NC(=O)[C@H](C)NC(=O)[C@H](CCCCNC(=O)COCCOCCNC(=O)COCCOCCNC(=O)CC[C@H](NC(=O)CCCCCCCCCCCCCCCCC(=O)O)C(=O)O)NC(=O)[C@H](CCCCN)NC(=O)[C@H](CC(=O)O)NC(=O)[C@H](CC(C)C)NC(=O)[C@H](CC(C)C)NC(=O)[C@@H](NC(=O)[C@H](CO)NC(=O)[C@H](Cc1ccc(O)cc1)NC(=O)[C@H](CC(=O)O)NC(=O)[C@H](CO)NC(=O)[C@@H](NC(=O)[C@H](Cc1ccccc1)NC(=O)[C@@H](NC(=O)CNC(=O)[C@H](CCC(=O)O)NC(=O)C(C)(C)NC(=O)[C@@H](N)Cc1ccc(O)cc1)[C@@H](C)O)[C@@H](C)O)[C@@H](C)CC)[C@@H](C)CC)C(=O)N[C@@H](C)C(=O)NCC(=O)NCC(=O)N1CCC[C@H]1C(=O)N[C@@H](CO)C(=O)N[C@@H](CO)C(=O)NCC(=O)N[C@@H](C)C(=O)N1CCC[C@H]1C(=O)N1CCC[C@H]1C(=O)N1CCC[C@H]1C(=O)N[C@@H](CO)C(N)=O) [Example 316] | 26.1 | 6.08 | 56.7 | 0.766 |
| Y[Aib]EGTFTSDYSILLDKK([AEEA-AEEA-γGlu-C20 diacid])AQ[Aib]AFIEYLIAGGPSSGAPPPS-NH2 (N-terminus assumed; SMILES CC[C@H](C)[C@H](NC(=O)[C@H](CC(C)C)NC(=O)[C@H](Cc1ccc(O)cc1)NC(=O)[C@H](CCC(=O)O)NC(=O)[C@@H](NC(=O)[C@H](Cc1ccccc1)NC(=O)[C@H](C)NC(=O)C(C)(C)NC(=O)[C@H](CCC(N)=O)NC(=O)[C@H](C)NC(=O)[C@H](CCCCNC(=O)COCCOCCNC(=O)COCCOCCNC(=O)CC[C@H](NC(=O)CCCCCCCCCCCCCCCCCCC(=O)O)C(=O)O)NC(=O)[C@H](CCCCN)NC(=O)[C@H](CC(=O)O)NC(=O)[C@H](CC(C)C)NC(=O)[C@H](CC(C)C)NC(=O)[C@@H](NC(=O)[C@H](CO)NC(=O)[C@H](Cc1ccc(O)cc1)NC(=O)[C@H](CC(=O)O)NC(=O)[C@H](CO)NC(=O)[C@@H](NC(=O)[C@H](Cc1ccccc1)NC(=O)[C@@H](NC(=O)CNC(=O)[C@H](CCC(=O)O)NC(=O)C(C)(C)NC(=O)[C@@H](N)Cc1ccc(O)cc1)[C@@H](C)O)[C@@H](C)O)[C@@H](C)CC)[C@@H](C)CC)C(=O)N[C@@H](C)C(=O)NCC(=O)NCC(=O)N1CCC[C@H]1C(=O)N[C@@H](CO)C(=O)N[C@@H](CO)C(=O)NCC(=O)N[C@@H](C)C(=O)N1CCC[C@H]1C(=O)N1CCC[C@H]1C(=O)N1CCC[C@H]1C(=O)N[C@@H](CO)C(N)=O) [Example 288] | 21.3 | 6.74 | 66.7 | 0.666 |
| YXEGTFTSDYSIXLDKKAQXEFIEYLIAGGPSSGAPPPS (Aib2, αMeL13, K17 conjugated to (2-[2-(2-Amino-ethoxy)-ethoxy]-acetyl)2-(γ-Glu)-CO-(CH2)18-CO2H, Aib20, C-terminal amide (NH2)) [Example 289] | 51.3 | 12.4 | 83.7 | 0.404 |
| FXEGTFTSDYSIXLDKKAQXAFIEYLIEGGPSSGAPPPS (Aib2, αMeL13, K17 conjugated to (2-[2-(2-Amino-ethoxy)-ethoxy]-acetyl)2-(γ-Glu)-CO-(CH2)18-CO2H, Aib20, C-terminal amide (NH2)) [Example 327] | 41.6 | 3.79 | 75.6 | 0.287 |
| XXEGTXTSDYSILLDKKAQXAFIEYLIEGGPSSGAPPPS (D-Tyr1, Aib2, αMeF6, K17 conjugated to (2-[2-(2-Amino-ethoxy)-ethoxy]-acetyl)2-(γ-Glu)-CO-(CH2)18-CO2H, Aib20, C-terminal amide (NH2)) [Example 329] | 63.4 | 4.73 | 83.6 | 0.343 |
